Experimental data as given in patent US20170356903, “OLIGONUCLEOTIDE PROBES AND USES THEREOF” (Caris Science, Inc., published 2017).

Target: Argonaute-2 (hAgo2) (Homo sapiens, UniProt Q9UKV8 Q9UKV8:1-859)
Assay: EMSA; DNA cariMir co-migrates with Ago2-miR complex
Details: tags: expressed in sf9 insect cells, endogenous insect miRs co-purify; label: fluorescein
Procedure: Recombinant hAgo2 (Creative Biomart) was preloaded with synthetic miR guide in cleavage buffer (150 mM NaCl, 5 mM MgCl₂, 2.5% glycerol, 0.05% Tween-20, 10 mM Tris-HCl, pH 7.4) for 10-20 min at room temperature, followed by addition of target cariMir. Reactions were stopped by addition of gel loading buffer and immediately resolved by non-denaturing PAGE using 10% TBE gels (Life Technologies). Gels were stained with SYBR Green I and imaged with a PXi gel imager (Syngene). Gel densitometric analysis was performed using Image J and data were plotted in Prism 6 (GraphPad).
When cariMirs were mixed with recombinant Ago2 pre-loaded with synthetic miRs, cariMirs were cleaved producing the expected 5′ and 3′ cleavage products (see FIG. 14B), consistent with miR-guided Ago2 endonucleolytic action subsequent to specific hybridization of cariMir and miR within Ago2. […] Various components of the method are shown in the lanes of the gel as indicated above the gel. In the rightmost lane on the gel image (labeled “miR+Ago2+cariMir”), all components are added to allow potential Ago-mediated cleavage of the cariMir to occur (see FIG. 14A). The amounts of the various components in the reaction mixture are indicated to the left of the gel. […]

Sequence of Argonaute-2 (hAgo2) (Q9UKV8 whole entry, one chain of several): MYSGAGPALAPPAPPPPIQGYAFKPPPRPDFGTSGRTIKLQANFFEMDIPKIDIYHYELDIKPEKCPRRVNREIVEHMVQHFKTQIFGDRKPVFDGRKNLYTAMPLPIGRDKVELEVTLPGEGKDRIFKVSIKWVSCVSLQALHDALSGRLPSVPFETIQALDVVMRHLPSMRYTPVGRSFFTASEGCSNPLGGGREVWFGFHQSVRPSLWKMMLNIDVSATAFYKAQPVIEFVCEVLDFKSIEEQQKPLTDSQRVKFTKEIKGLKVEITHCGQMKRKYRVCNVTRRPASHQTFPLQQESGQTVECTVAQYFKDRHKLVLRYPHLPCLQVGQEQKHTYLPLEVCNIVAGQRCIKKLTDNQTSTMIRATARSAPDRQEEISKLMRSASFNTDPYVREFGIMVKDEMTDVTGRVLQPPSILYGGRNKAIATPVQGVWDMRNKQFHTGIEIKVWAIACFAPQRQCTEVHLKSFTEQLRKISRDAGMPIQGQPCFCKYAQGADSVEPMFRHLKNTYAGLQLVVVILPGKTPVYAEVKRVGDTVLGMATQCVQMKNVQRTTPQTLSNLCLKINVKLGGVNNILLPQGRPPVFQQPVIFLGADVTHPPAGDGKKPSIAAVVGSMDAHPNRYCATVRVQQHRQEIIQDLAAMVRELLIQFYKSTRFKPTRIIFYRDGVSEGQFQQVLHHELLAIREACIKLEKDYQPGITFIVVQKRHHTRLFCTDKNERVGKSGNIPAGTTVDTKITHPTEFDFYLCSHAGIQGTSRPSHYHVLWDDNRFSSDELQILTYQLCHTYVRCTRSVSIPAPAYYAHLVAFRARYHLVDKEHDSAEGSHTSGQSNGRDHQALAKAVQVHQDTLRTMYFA

B1: miR guide ; cariMir target (ssRNA ; ssDNA)
RNA: UAGAGGUACGUGCUGAGGCUU
DNA: CTAGCATGACTGCAGTACGTCACTGCAGGCCTCAGCACGTACCTCTATAACCGCCCTGTCTCTTATACACATCTGACGCTGCCGACGA
modifications: 5'-phosphate, internal fluorescein-dT
- binding result: binds
